These results are taken from patent US10525110B2, “Methods for inducing partial apoptosis using caspase polypeptides” (Bellicum Pharmaceuticals, Inc., priority 2013, dated 2020).

Entries after “also recorded” stand apart in the source; their conditions may differ.

The chains are these.
B1: F404Y: chimeric modified caspase-9 polypeptide (protein)
chain: VDGFGDVGALESLRGNADLAYILSMEPCGHCLIINNVNFCRESGLRTRTGSNIDCEKLRRRFSSLHFMVEVKGDLTAKKMVLALLELARQDHGALDCCVVVILSHGCQASHLQFPGAVYGTDGCPVSVEKIVNIFNGTSCPSLGGKPKLFFIQACGGEQKDHGFEVASTSPEDESPGSNPEPDATPFQEGLRTFDQLDAISSLPTPSDIFVSYSTFPGFVSWRDPKSGSWYVETLDDIFEQWAHSEDLQSLLLRVANAVSVKGIYKQMPGCYNFLRKKLFFKTSASRA
B2: F406L: chimeric modified caspase-9 polypeptide (protein)
chain: VDGFGDVGALESLRGNADLAYILSMEPCGHCLIINNVNFCRESGLRTRTGSNIDCEKLRRRFSSLHFMVEVKGDLTAKKMVLALLELARQDHGALDCCVVVILSHGCQASHLQFPGAVYGTDGCPVSVEKIVNIFNGTSCPSLGGKPKLFFIQACGGEQKDHGFEVASTSPEDESPGSNPEPDATPFQEGLRTFDQLDAISSLPTPSDIFVSYSTFPGFVSWRDPKSGSWYVETLDDIFEQWAHSEDLQSLLLRVANAVSVKGIYKQMPGCFNLLRKKLFFKTSASRA
B3: S144A: chimeric modified caspase-9 polypeptide (protein)
chain: VDGFGDVGALEALRGNADLAYILSMEPCGHCLIINNVNFCRESGLRTRTGSNIDCEKLRRRFSSLHFMVEVKGDLTAKKMVLALLELARQDHGALDCCVVVILSHGCQASHLQFPGAVYGTDGCPVSVEKIVNIFNGTSCPSLGGKPKLFFIQACGGEQKDHGFEVASTSPEDESPGSNPEPDATPFQEGLRTFDQLDAISSLPTPSDIFVSYSTFPGFVSWRDPKSGSWYVETLDDIFEQWAHSEDLQSLLLRVANAVSVKGIYKQMPGCFNFLRKKLFFKTSASRA
B4: F404W: chimeric modified caspase-9 polypeptide (protein)
chain: VDGFGDVGALESLRGNADLAYILSMEPCGHCLIINNVNFCRESGLRTRTGSNIDCEKLRRRFSSLHFMVEVKGDLTAKKMVLALLELARQDHGALDCCVVVILSHGCQASHLQFPGAVYGTDGCPVSVEKIVNIFNGTSCPSLGGKPKLFFIQACGGEQKDHGFEVASTSPEDESPGSNPEPDATPFQEGLRTFDQLDAISSLPTPSDIFVSYSTFPGFVSWRDPKSGSWYVETLDDIFEQWAHSEDLQSLLLRVANAVSVKGIYKQMPGCWNFLRKKLFFKTSASRA
B5: D330S: chimeric modified caspase-9 polypeptide (protein)
chain: VDGFGDVGALESLRGNADLAYILSMEPCGHCLIINNVNFCRESGLRTRTGSNIDCEKLRRRFSSLHFMVEVKGDLTAKKMVLALLELARQDHGALDCCVVVILSHGCQASHLQFPGAVYGTDGCPVSVEKIVNIFNGTSCPSLGGKPKLFFIQACGGEQKDHGFEVASTSPEDESPGSNPEPDATPFQEGLRTFDQLSAISSLPTPSDIFVSYSTFPGFVSWRDPKSGSWYVETLDDIFEQWAHSEDLQSLLLRVANAVSVKGIYKQMPGCFNFLRKKLFFKTSASRA
B6: F406T: chimeric modified caspase-9 polypeptide (protein)
chain: VDGFGDVGALESLRGNADLAYILSMEPCGHCLIINNVNFCRESGLRTRTGSNIDCEKLRRRFSSLHFMVEVKGDLTAKKMVLALLELARQDHGALDCCVVVILSHGCQASHLQFPGAVYGTDGCPVSVEKIVNIFNGTSCPSLGGKPKLFFIQACGGEQKDHGFEVASTSPEDESPGSNPEPDATPFQEGLRTFDQLDAISSLPTPSDIFVSYSTFPGFVSWRDPKSGSWYVETLDDIFEQWAHSEDLQSLLLRVANAVSVKGIYKQMPGCFNTLRKKLFFKTSASRA
B7: D330N: chimeric modified caspase-9 polypeptide (protein)
chain: VDGFGDVGALESLRGNADLAYILSMEPCGHCLIINNVNFCRESGLRTRTGSNIDCEKLRRRFSSLHFMVEVKGDLTAKKMVLALLELARQDHGALDCCVVVILSHGCQASHLQFPGAVYGTDGCPVSVEKIVNIFNGTSCPSLGGKPKLFFIQACGGEQKDHGFEVASTSPEDESPGSNPEPDATPFQEGLRTFDQLNAISSLPTPSDIFVSYSTFPGFVSWRDPKSGSWYVETLDDIFEQWAHSEDLQSLLLRVANAVSVKGIYKQMPGCFNFLRKKLFFKTSASRA
B8: D330V: chimeric modified caspase-9 polypeptide (protein)
chain: VDGFGDVGALESLRGNADLAYILSMEPCGHCLIINNVNFCRESGLRTRTGSNIDCEKLRRRFSSLHFMVEVKGDLTAKKMVLALLELARQDHGALDCCVVVILSHGCQASHLQFPGAVYGTDGCPVSVEKIVNIFNGTSCPSLGGKPKLFFIQACGGEQKDHGFEVASTSPEDESPGSNPEPDATPFQEGLRTFDQLVAISSLPTPSDIFVSYSTFPGFVSWRDPKSGSWYVETLDDIFEQWAHSEDLQSLLLRVANAVSVKGIYKQMPGCFNFLRKKLFFKTSASRA
B9: D330G: chimeric modified caspase-9 polypeptide (protein)
chain: VDGFGDVGALESLRGNADLAYILSMEPCGHCLIINNVNFCRESGLRTRTGSNIDCEKLRRRFSSLHFMVEVKGDLTAKKMVLALLELARQDHGALDCCVVVILSHGCQASHLQFPGAVYGTDGCPVSVEKIVNIFNGTSCPSLGGKPKLFFIQACGGEQKDHGFEVASTSPEDESPGSNPEPDATPFQEGLRTFDQLGAISSLPTPSDIFVSYSTFPGFVSWRDPKSGSWYVETLDDIFEQWAHSEDLQSLLLRVANAVSVKGIYKQMPGCFNFLRKKLFFKTSASRA

The first experiment relates to HEK293T/16 cells. The experiment in a line: Secreted alkaline phosphatase (SEAP) reporter-based surrogate killing assay. To be noted: AP1903-independent SEAP activity, relative to wild type. The experiment is classed as cell-based, human. On the procedure:
FIG. 45 provides an analysis of SEAP assays. To examine both basal signaling and AP1903 induced activity, […] early-passage HEK293T/16 cells were co-transfected with various amount of wildtype Caspase and 500 ng of an expression plasmid that uses an SRα promoter to drive SEAP, a marker for cell viability. […] of the mixture was seeded onto each well of a 96-well plate. 100-ul of AP1903 was added at least three hours post-transfection. After addition of AP1903 for at least 24 hours, 100-ul of supernatant was transferred to a 96-well plate and heat denatured at 68 ? C for 30 minutes to inactivate endogenous alkaline phosphatases. For the assay, 4-methylumbelliferyl phosphate substrate was hydrolyzed by SEAP to 4-methylumbelliferon, a metabolite that can be excited with 364 nm and detected with an emission filter of 448 nm. Since SEAP is used as a marker for cell viability, reduced SEAP reading corresponds with increased icaspase-9 activities.
(50A) To examine both basal signaling and AP1903-induced CaspaClDe activity, 10^6 early-passage HEK293T/17 cells were co-transfected with 2 μg of inducible caspase variants along with 500 ng of an expression plasmid using an SRα promoter to transcriptionally regulate SEAP, a surrogate marker for cell viability. 200-μl of the transfection mixture containing plasmids, GeneJammer and HEK293T/17 cells in IMDM+10% FBS (without antibiotics) was seeded into each well of a 96-well plate. To induce caspase activity, 22 μl of serially diluted AP1903 was added 24 hours post-transfection. (50B) To examine basal and AP1903 induced signaling, 100 μl of supernatant was harvested 48 hours post-treatment and heat-denatured at 68° C. for 1 hour to inactivate endogenous alkaline phosphatases. For the assay, 4-methylumbelliferyl phosphate (4-MUP) substrate was hydrolyzed by SEAP to 4-methylumbelliferon, a metabolite with peak excitation at 364 nm and peak emission at 448 nm. Since SEAP is used as a surrogate marker for cell viability, a reduced SEAP reading corresponds to increased caspase-9 activity.
Early passage HEK293T/16 cells (ATCC, Manassas, Va.) were maintained in IMDM, GlutaMAX™ (Life Technologies, Carlsbad, Calif.) supplemented with 10% FBS, 100 U/mL penicillin, and 100 […] until transfection in a humidified, 37° C., 5% CO2/95% air atmosphere. Cells in logarithmic-phase growth were transiently transfected with 800 ng to 2 μg of expression plasmid encoding iCasp9 mutants and 500 ng of an expression plasmid encoding SRα promoter driven SEAP per million cells in 15-mL conical tubes. […] GeneJammer® Transfection Reagent at a ratio of 3 μl per ug of plasmid DNA was used to transiently transfect HEK293T/16 cells in the absence of antibiotics. 100 μl or 2 mL of the transfection mixture was added to each well in 96-well or 6-well plate, respectively. For SEAP assays, log dilutions of AP1903 were added after a minimum 3-hour incubation post-transfection. For western blots, cells were incubated for 20 minutes with AP1903 (10 nM) before harvesting.
Twenty-four to forty-eight hours after AP1903 treatment, ˜100 μl of supernatants were harvested into a 96-well plate and assayed for SEAP activity as described. Briefly, after 65° C. heat denaturation for 45 minutes to reduce background caused by endogenous (and serum-derived) alkaline phosphatases that are sensitive to heat, 5 μl of supernatants was added to 95 μl of PBS and added to 100 μl of substrate buffer, containing 1 μl of 100 mM 4-methylumbelliferyl phosphate (4-MUP; Sigma, St. Louis, Mo.) re-suspended in 2 M diethanolamine. Hydrolysis of 4-MUP by SEAP produces a fluorescent […] with excitation/emission (355/460 nm), which can be easily measured. Assays were performed in black opaque 96-well plates to minimize fluorescence leakage between wells (FIG. 45).
Consider B1, for which the “basal activity / basal signaling (in words)” value was “lower basal signaling; also recorded: lowered basal activity”.

Regarding B2, the “basal activity / basal signaling (in words)” value is “lowered basal activity”.

Regarding B3, the “basal activity / basal signaling (in words)” value was “lower basal activity”.

Take B4: the “basal activity / basal signaling (in words)” value is on record as “lower basal signaling; also recorded: lowered basal activity”.

As for B5, the “basal activity / basal signaling (in words)” value is recorded as “less basal activity than wildtype caspase-9”.

On to B6, for which the “basal activity / basal signaling (in words)” value was “lower basal signaling; also recorded: lowered basal activity”.

Turning to B7, the “basal activity / basal signaling (in words)” value is recorded as “less basal activity than wildtype caspase-9”.

For the molecule B8, the “basal activity / basal signaling (in words)” value was “less basal activity than wildtype caspase-9”.

Turning to B9, the “basal activity / basal signaling (in words)” value was “less basal activity than wildtype caspase-9”.

For a further experiment, the system named is Activated T cells. Briefly: Control of proliferation of iCasp9-mutant-transduced T cells over 10 days. Type of experiment: cell-based. To be noted: AP1903 on days 0 and 4. From the text: FIG. 63: iCasp9 mutants with lower sensitivity to AP1903 still control T cell proliferation in vitro. Activated T cells were transduced with retrovirus containing iCasp9 mutants and treated with AP1903 (arrow) on days 0 and 4 and subsequently enumerated for 10 days.
As for B1, the “control of T cell proliferation and survival within 10 days (in words)” value is “can kill target T cells indistinguishable from wildtype caspase-9 polypeptide or D330A within 10 days”.
